From the nanobody polyreactivity screen of Harvey et al. (2022)

Assay: yeast display, Sf9 membrane polyspecificity reagent, FACS + sequencing; frameworks hold sequencing errors
How it was run: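 Genes from sorted yeast were amplified by colony PCR, read by MiSeq 2 × 250 sequencing and filtered on CDR length. These cells carried a synthetic nanobody library in Saccharomyces cerevisiae BJ5465 and were sorted by FACS into low and high (top ~1%) gates on anti-HA and streptavidin fluorescence. Polyreactivity is labelled according to the gate of origin.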

| Sequence | polyreactivity (PSR sort gate) |
| --- | --- |
| QVQLVESGGGLVQAGGSLRLSSAASGLIFWFYAMGWYRQAPGKERELVAAIDTDGGSTYYADSVKGRFTISRDNAKNTVYLQMNSLKPEDTAVYYCAATFAAYTQQTFYYWGQGTQVTVSS | low polyreactivity |
| QVQLQESGGGLVQAGGSLGCAASGNISTRSEMGWYRQAPGNEREFVATINSGGLTNYADSVKGRFTISRDNAKNTVNLRMNSLKPEDTAVYYRAVYGYFSDPYDYWGQGTQVTVSS | low polyreactivity |
| QVQLVESGGGLVQAGGSLRLSCAASGIIVDFYAMGWYRQAPGKERELVAGISWGGGTTYYADSVKGRFTISRDNAKNTVYLQMNSLKPEDTAVYYCAAVAFQTRYYYWGQGTQVTVSS | high polyreactivity |
| QVQLVESGGGLVQAGGSLRLICAASGSIFLQYTMGWYRQAPGKERELVAAITESDGSTYYADSVKGRFTISRDNAKNTVYLQMNSLKPEDTGVYYCAAEVVYFKYWDKYDYWGQGTQVTVSS | low polyreactivity |
| QVQLVESGGGLVQAGGSLLLSCAASGLTFERYVMVWYRQAPGKERELVSSISRSGSTYYADSVKGRFTISRDNAKNTVYLQMNSLKPEDTAVYYCNADRFWFHWVYSRYHYDYWGQGTQVTVSS | high polyreactivity |
| QVQLVESGGGLVQAGGSLRLICADSGSIFDGNVMGWYRQAPGKERDLVAAISGARTNYADSVKGRFTISRDNAKNTVYLQMNSLKAEDTAVYYCNVLPVGSEYDYWGQGTQVTVST | low polyreactivity |
| QVQLVESGGGLVQAGGSLRLSCAASGFIIVNNAMGWYRQAPGKERELVATISRGGSTNYADSVKGRFTISRDNAKNTVYLQMNSLKPEDTAVYYCNARRSVKVYGVDYWGQGTQVTVSS | high polyreactivity |
| QVQLVESGGGLVQSGGSLRLSCAASGYIVRNAMGWYRQAPVKERELVAAITWSGGSTYYADSVKGRFTISRDNAKNTVYLQMNSLKPEDTAVYYCNARRNVRQTFGYEYWGQGTQVTVSS | high polyreactivity |
| QVQIVESGGGLVQAGGSLRLRCAASGLTFYVYVMGWYRQAPGKEREFVAAISYDGDSTYYADSVKGRFTISRDNAKNTVFFQMNSLIAEDTAVYYCNADRYPYWGYDYWGQGTQVTVSS | low polyreactivity |
| QVQLVESGGGLVQAGGSLRLSCAASGIIFARYAMGWYRQAPGKERELVAAINWSGGDTYYADSVKGRFTISRDNAKNTVYLEMNSLIPEDTAVYYCSKVISYLVVLPRTERYEGDYWGQGTQVSVSS | low polyreactivity |
| QVQLVESGGGLVQAGGSLRLSCAASGSTFQYYAMGWYRQAPGKERELVASITWGGDNTDYADSVKGRFTISRDNAKNTVYLQMNSLKPEDTAVYYCNTVRSNKMDYWGQGTQVTVSS | high polyreactivity |
| QVQLVESGGGLVQAGGSLRLSCAASGITFSLYAMGWYRQAPGKERELVAAISKSGGSTYYADSVKGRFTISRDNAKNTVYLQMNSLKPEDTAVYYCAADFVSKTPWHAQDDYWGQGTQVTVSS | low polyreactivity |
| QVQLVESGGGLVQAGGSLLLSCAASGSTFAWYAMGWNRQAPGKERELVAAISRTGRTYYADSVKGRFTISRDNAKNTVYLEMNSLKPEDTAVYYCAARIERFYRDQRYDYWGQGTQVTVSS | high polyreactivity |
| QVQLVESGGGLVQAGGSLRLSCAASGSTFFPNGMGWYRQAPGKERELVAAITQDGGSTYYADSVKGRFTISRDNAKNTVYLQMNSLKPEDTAVYYCNADYFVWYIGRVFSRYGYWGQGTQVTVSS | low polyreactivity |
| QVQLVESGGGLVQAGGSLRLSCAASGSIISSYTMGWYRQAPGKERELVAVITSGDSTNYADSVKGRFTISRDNAKNTVYLEMNSLKPEDTAVYYCNADYVKVFKLQFDYWGQGTQVTVSS | low polyreactivity |
| QVQLVESGGGLVQAGGSLRLSCAASGSIFDTYVMGWYRQAPGKERELVAVISYSGTRTSYADSVKGRFTISRDNAKNTVYLQMNSLKPEDTAVYYCAARVTYYRTYRGRQYGYWGQGTQVTVSS | high polyreactivity |
| QVQLVESGGGLVQAGGSLRLSCAASVRTFYRNAMGWYIQAPGKERELVAAITSGGSTYYADSVKGRFTISRDNAKNTVYLQMNSLKPEDTAVYYCAALRHALRYDYWGQGTQVTVSS | low polyreactivity |
| QVQLVESGGGLVQAGGSLRLSCAASGSTFIPNAMGWYRQAPGKERELVATIRSGGGRTYYADSVKGRFKISRDNAKNTVYLQMNSLKPEDTAVYYCAAGYYLSVQVYRFDYWGQGTQVTVSS | high polyreactivity |
| QVQLVESGGGLVQAGGSLRLSCAASGRIFGRNTMGWYRQAPGKERELVAAISYSAGSTYYADSVKGRFTISRDNAKNTVYLQMNSLKPEDTAVYYCAAGYIRTTYRTNRYGYWGQGTQVTVSS | high polyreactivity |
| QVQLVESGGGLVQAGGSLRLSCAASGTIFTDNVMGWYRQAPGKERELVAAITYSAASTYYADSVKGRFTISRDNAKNTVYLQMNSLKPEDTAVYYCNADDPDYLVSYRYDYWGQGTQVTVSS | low polyreactivity |
| QVQLVESGGGLVQAGGSLRLSCAASGLTFQSYAMGWYRQAPGKERELVATISNGSSTYYADSVKGRFTISRDNAKNSVYLQMNSLKPEDTAVYYCAKDYYYSRNPLYGHDYWGQGTQVTVSS | low polyreactivity |
